Data from PMC4060006, “SM proteins Sly1 and Vps33 co-assemble with Sec17 and SNARE complexes to oppose SNARE disassembly by Sec18” (eLife, 2014).
One block for each binder: values may come before it.

B2: His6-Sec22 (soluble domain, aa1-188) (domain or fragment, S. cerevisiae, UniProt P22214 1-188, looked up)
chain: MIKSTLIYREDGLPLCTSVDNENDPSLFEQKQKVKIVVSRLTPQSATEATLESGSFEIHYLKKSMVYYFVICESGYPRNLAFSYLNDIAQEFEHSFANEYPKPTVRPYQFVNFDNFLQMTKKSYSDKKVQDNLDQLNQELVGVKQIMSKNIEDLLYRGDSLDKMSDMSSSLKETSKRYRKSAQKINFD
notes: Sec22, Golgi R-SNARE, S. cerevisiae, soluble domain aa1-188; also called Golgi R-SNARE; source: E. coli (pRIL plasmid), purified (Ni-NTA); not shown: His6, N-terminal, kept
B5: GST-Sed5 SNARE domain (aa170-319) (domain or fragment, S. cerevisiae, UniProt Q01590 170-319, looked up)
chain: ANKDRWQKLTTDTGHAPADDQTQSNHAADLTTYNNSNPFMTSLLDESSEKNNNSSNQGELSFPQNDSQLMLMEEGQLSNNVYLQERNRAVETIESTIQEVGNLFQQLASMVQEQGEVIQRIDANVDDIDLNISGAQRELLKYFDRIKSNR
notes: Sed5, Golgi Qa-SNARE, S. cerevisiae, aa170-319, lacks the N-peptide, the Habc domain and the transmembrane domain; also called Golgi Qa-SNARE lacking N-peptide and Habc domain; not shown: GST, N-terminal, kept
B7: Vam3-GST (cytoplasmic domain of Vam3, aa1-264) (domain or fragment, S. cerevisiae, UniProt Q12241 1-264, looked up)
chain: MSFFDIEAQSSKGNSQQEPQFSTNQKTKELSNLIETFAEQSRVLEKECTKIGSKRDSKELRYKIETELIPNCTSVRDKIESNILIHQNGKLSADFKNLKTKYQSLQQSYNQRKSLFPLKTPISPGTSKERKDIHPRTEAVRQDPESSYISIKVNEQSPLLHNEGQHQLQLQEEQEQQQQGLSQEELDFQTIIHQERSQQIGRIHTAVQEVNAIFHQLGSLVKEQGEQVTTIDENISHLHDNMQNANKQLTRADQHQRDRNKCGK
notes: Vam3, vacuole Qa-SNARE, S. cerevisiae, cytoplasmic domain aa1-264, no transmembrane domain; TEV site between SNARE and GST; also called Vam3 cytoplasmic domain; vacuole Qa-SNARE; not shown: GST, C-terminal, kept

Assays:
Settings in all cases: both partners purified
[1] = molecular target: B7; experiment: pull-down; re-assembly with added SNAREs: as a9, but soluble Qb, Qc and R-SNAREs (~3 µM each) added along with the EDTA quench, 30 min at 30°C
[2] = molecular target: T1, GST-Sed5 full cytoplasmic domain (aa1-319) (S. cerevisiae, UniProt Q01590 1-319); experiment: pull-down; SNARE complex assembly: 125 pmol GST-tagged Qa-SNARE on glutathione sepharose 4B; >=fivefold molar excess of Qb-, Qc- and R-SNAREs overnight at 4°C; SM Assay Buffer (20 mM HEPES, 150 mM NaCl, 2 mM 2-mercaptoethanol, 0.05% Anapoe-X-100, pH 7.4); washed
T1 construct: Sed5, Golgi Qa-SNARE, S. cerevisiae, full cytoplasmic domain aa1-319 with N-peptide and Habc segments, no transmembrane domain; also called GST-Sed5FL; Sed5FL; not shown: GST, N-terminal, kept
T1 sequence (looked up): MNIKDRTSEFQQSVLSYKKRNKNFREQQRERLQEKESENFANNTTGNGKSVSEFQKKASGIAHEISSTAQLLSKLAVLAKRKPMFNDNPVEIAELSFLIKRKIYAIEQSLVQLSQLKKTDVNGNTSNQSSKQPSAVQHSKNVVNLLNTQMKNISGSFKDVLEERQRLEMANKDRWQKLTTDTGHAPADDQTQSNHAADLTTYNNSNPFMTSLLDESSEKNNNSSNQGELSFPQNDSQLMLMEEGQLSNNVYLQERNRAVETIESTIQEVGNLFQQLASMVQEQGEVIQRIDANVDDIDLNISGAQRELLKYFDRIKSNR

[3] = molecular target: B7; experiment: as above
[4] = molecular target: T2, Sly1 (full length, aa1-667) (S. cerevisiae, UniProt P22213 1-666); experiment: pull-down; SNARE complexes (500 nM) on immobilised Qa-SNARE pre-incubated with Sec17 (20 µM) and Sly1 (10 µM) or Vps33 (2.5 µM) 60 min at 30°C in Disassembly Buffer (SM Assay Buffer, 1 mM ATP, 2 mM MgCl2), then Sec18 (300 nM); what stayed on the resin after complete disassembly, SDS-PAGE
T2 construct: Sly1, Golgi SM protein, S. cerevisiae, printed as full-length aa1-667; construct His6-(tev)-Sly1; as I recall the UniProt entry has 666 residues; the printed 667 may count the stop codon; also called His6-Sly1; Golgi SM protein; source: E. coli (pRIL plasmid), purified (Ni-NTA)
T2 sequence (looked up): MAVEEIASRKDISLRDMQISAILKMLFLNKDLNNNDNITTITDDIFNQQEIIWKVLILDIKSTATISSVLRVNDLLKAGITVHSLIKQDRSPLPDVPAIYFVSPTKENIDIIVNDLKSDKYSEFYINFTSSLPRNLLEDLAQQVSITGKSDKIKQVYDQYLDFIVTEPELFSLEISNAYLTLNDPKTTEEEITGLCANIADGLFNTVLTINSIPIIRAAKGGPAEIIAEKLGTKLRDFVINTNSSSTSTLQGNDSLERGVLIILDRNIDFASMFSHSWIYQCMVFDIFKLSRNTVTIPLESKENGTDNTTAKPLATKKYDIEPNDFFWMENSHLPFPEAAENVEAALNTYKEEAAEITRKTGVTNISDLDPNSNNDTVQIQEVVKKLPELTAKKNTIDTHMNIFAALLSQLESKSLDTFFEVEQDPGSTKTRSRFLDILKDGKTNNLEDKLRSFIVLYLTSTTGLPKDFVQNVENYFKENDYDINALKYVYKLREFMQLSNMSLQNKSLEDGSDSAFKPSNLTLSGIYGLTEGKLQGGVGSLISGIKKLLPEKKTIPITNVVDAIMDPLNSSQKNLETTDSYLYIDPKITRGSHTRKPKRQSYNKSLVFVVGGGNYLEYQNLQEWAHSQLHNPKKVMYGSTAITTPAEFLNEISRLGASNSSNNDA

[5] = molecular target: B2; experiment: pull-down; re-assembly with added SNAREs: as a9, but soluble Qb, Qc and R-SNAREs (~3 µM each) added along with the EDTA quench, 30 min at 30°C
[6] = molecular target: T3, Vps33 (S. cerevisiae, UniProt P20795 1-691); experiment: pull-down; SNARE complexes (500 nM) on immobilised Qa-SNARE pre-incubated with Sec17 (20 µM) and Sly1 (10 µM) or Vps33 (2.5 µM) 60 min at 30°C in Disassembly Buffer (SM Assay Buffer, 1 mM ATP, 2 mM MgCl2), then Sec18 (300 nM); what stayed on the resin after complete disassembly, SDS-PAGE
T3 construct: Vps33, SM protein of the vacuole, S. cerevisiae; also called vacuole SM protein; late endolysosomal SM; source: insect cells, Baculovirus system, purified
T3 sequence (looked up): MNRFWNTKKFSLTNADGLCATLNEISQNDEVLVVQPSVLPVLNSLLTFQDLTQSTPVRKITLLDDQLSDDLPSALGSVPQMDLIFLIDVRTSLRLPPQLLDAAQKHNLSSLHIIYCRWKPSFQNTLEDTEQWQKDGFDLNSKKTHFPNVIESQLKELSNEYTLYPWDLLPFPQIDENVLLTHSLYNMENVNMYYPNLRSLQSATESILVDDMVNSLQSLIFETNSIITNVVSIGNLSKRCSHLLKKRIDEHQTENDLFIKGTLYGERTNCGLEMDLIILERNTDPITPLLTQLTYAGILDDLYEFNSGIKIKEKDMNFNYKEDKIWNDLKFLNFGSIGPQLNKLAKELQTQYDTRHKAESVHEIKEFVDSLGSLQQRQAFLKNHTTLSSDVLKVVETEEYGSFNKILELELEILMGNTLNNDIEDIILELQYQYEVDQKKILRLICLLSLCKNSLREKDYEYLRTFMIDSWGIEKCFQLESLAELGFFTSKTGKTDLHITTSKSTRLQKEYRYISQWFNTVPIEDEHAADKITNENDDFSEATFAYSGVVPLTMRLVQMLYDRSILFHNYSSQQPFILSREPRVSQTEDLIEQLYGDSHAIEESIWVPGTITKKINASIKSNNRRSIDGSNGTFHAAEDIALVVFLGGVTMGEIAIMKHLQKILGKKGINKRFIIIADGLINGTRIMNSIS

[7] = molecular target: B5; experiment: pull-down; re-assembly with added SNAREs: as a9, but soluble Qb, Qc and R-SNAREs (~3 µM each) added along with the EDTA quench, 30 min at 30°C

binding result [1]: binds
B1: His6-Nyv1 (soluble domain, aa1-231) (domain or fragment, S. cerevisiae, UniProt Q12255 1-231, looked up)
chain: MKRFNVSYVEVIKNGETISSCFQPFQKNENYGTITSANEQITPVIFHNLIMDMVLPKVVPIKGNKVTKMSMNLIDGFDCFYSTDDHDPKTVYVCFTLVDMPKILPIRILSGLQEYESNATNELLSSHVGQILDSFHEELVEYRNQTLNSSGNGQSSNGNGQNTISDIGDATEDQIKDVIQIMNDNIDKFLERQERVSLLVDKTSQLNSSSNKFRRKAVNIKEIMWWQKVKN
notes: Nyv1, vacuole R-SNARE, S. cerevisiae, soluble domain aa1-231; also called vacuole R-SNARE; source: E. coli (pRIL plasmid), purified (Ni-NTA); not shown: His6, N-terminal, kept

Binder: B2
binding result [2]: binds

binding result [3]: binds
B3: His7-MBP-Vti1 (soluble domain, aa1-194) (domain or fragment, S. cerevisiae, UniProt Q04338 1-194, looked up)
chain: MSSLLISYESDFKTTLEQAKASLAEAPSQPLSQRNTTLKHVEQQQDELFDLLDQMDVEVNNSIGDASERATYKAKLREWKKTIQSDIKRPLQSLVDSGDRDRLFGDLNASNIDDDQRQQLLSNHAILQKSGDRLKDASRIANETEGIGSQIMMDLRSQRETLENARQTLFQADSYVDKSIKTLKTMTRRLVANK
notes: Vti1, vacuole Qb-SNARE, S. cerevisiae, soluble domain aa1-194; also called vacuole Qb-SNARE; source: E. coli (pRIL plasmid), purified (Ni-NTA); not shown: His7, N-terminal, kept; MBP, N-terminal, kept

binding result [1]: binds
B4: His6-GFP-Vam7 SNARE domain (aa190-316) (domain or fragment, S. cerevisiae, UniProt P32912 190-316, looked up)
chain: PSTEVTRRAALLRSLLKECDDIGTANIAQDRGRLLGVATSDNSSTTEVQGRTNNDLQQGQMQMVRDQEQELVALHRIIQAQRGLALEMNEELQTQNELLTALEDDVDNTGRRLQIANKKARHFNNSA
notes: Vam7, vacuole Qc-SNARE, S. cerevisiae, SNARE domain aa190-316; also called vacuole Qc-SNARE; source: E. coli (pRIL plasmid), purified (Ni-NTA); not shown: His6, N-terminal, kept; GFP (A207K), N-terminal, kept

Binder: B5
binding result [4]: binds | binding result [5]: binds

binding result [2]: binds
B6: His6-Bos1 (soluble domain, aa1-222) (domain or fragment, S. cerevisiae, UniProt P25385 1-222, looked up)
chain: MNALYNHAVKQKNQLQQELARFEKNSVTAPISLQGSISATLVSLEKTVKQYAEHLNRYKEDTNAEEIDPKFANRLATLTQDLHDFTAKFKDLKQSYNENNSRTQLFGSGASHVMDSDNPFSTSETIMNKRNVGGASANGKEGSSNGGGLPLYQGLQKEQSVFERGNAQLDYILEMGQQSFENIVEQNKILSKVQDRMSNGLRTLGVSEQTITSINKRVFKDK
notes: Bos1, Golgi Qb-SNARE, S. cerevisiae, soluble domain aa1-222; also called Golgi Qb-SNARE; source: E. coli Rosetta2 pLys, purified (Ni-NTA); not shown: His6, N-terminal, kept

Binder: B7
binding result [6]: binds

binding result [7]: binds | binding result [2]: binds
B8: His7-MBP-Bet1 (soluble domain, aa1-123) (domain or fragment, S. cerevisiae, UniProt P22804 1-123, looked up)
chain: MSSRFAGGNAYQRDTGRTQLFGPADGSNSLDDNVSSALGSTDKLDYSQSTLASLESQSEEQMGAMGQRIKALKSLSLKMGDEIRGSNQTIDQLGDTFHNTSVKLKRTFGNMMEMARRSGISIK
notes: Bet1, Golgi Qc-SNARE, S. cerevisiae, soluble domain aa1-123; also called Golgi Qc-SNARE; source: E. coli (pRIL plasmid), purified (Ni-NTA); not shown: His7, N-terminal, kept; MBP, N-terminal, kept
